Experimental data reported in the supplement of paper PMC5998384.

Experiments:
HeLa Kyoto [1] = test: solubility in G1/S (NP-40 vs SDS abundance) (log2 ratio); higher = more soluble; conditions: cell cycle stage: G1/S
HeLa Kyoto [2] = test: melting temperature (median over replicates), in situ; higher = more thermally stable
HeLa Kyoto [3] = test: solubility change mitosis vs G1/S (difference of NP-40 vs SDS log2 ratios) (log2 ratio difference); higher = more soluble in mitosis
HeLa Kyoto [4] = test: thermal stability score vs G1/S (z-score of summed log2 fold changes over temperatures); higher = more thermally stable than in G1/S
[5] = cell cycle stage: early G1 (4.5 h after nocodazole release)
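Wherever melting temperature (median over replicates), in situ is given: HeLa Kyoto cells synchronized by double thymidine or nocodazole block, proteins quantified by TMT10plex mass spectrometry, three independent biological replicates.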
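Wherever solubility change mitosis vs G1/S (difference of NP-40 vs SDS log2 ratios) is given: synchronized HeLa Kyoto cells (double thymidine block for G1/S, nocodazole release for mitosis), protein amounts in NP-40 versus SDS lysates quantified by mass spectrometry, three biological replicates.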
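Wherever solubility in G1/S (NP-40 vs SDS abundance) is given: HeLa Kyoto cells arrested at G1/S by double thymidine block, proteins quantified by TMT10plex mass spectrometry in mild NP-40 versus SDS extracts, three biological replicates.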
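Wherever thermal stability score vs G1/S (z-score of summed log2 fold changes over temperatures) is given: synchronized HeLa Kyoto cells, proteins quantified by TMT10plex mass spectrometry, three biological replicates, mitosis taken 0.5 h after nocodazole release, G1/S directly after double thymidine block.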

Sequence	solubility in G1/S (log2) (HeLa Kyoto [1])	melting temperature (HeLa Kyoto [2]; cell cycle stage: G1/S) [°C]	melting temperature (HeLa Kyoto [2]; cell cycle stage: mitosis) [°C]	solubility change mitosis (log2) (HeLa Kyoto [3])	thermal stability score (HeLa Kyoto [4]; [5])	thermal stability score (HeLa Kyoto [4]; cell cycle stage: mitosis)
MKARRNKKQIPSFRKLIKTSKVKLENKLKNKQFKQQSTLKKYRKEQRKLRQAVKDAVSKKPIPLENPKEKRPGKRIEREEEEEEEALPLDMMDEDDLQLMKDLGQRVSFLTRDLSSSEPVHAKKRKHERIIDKYEKIPRTLQTAPEKELIHLLPIKDKSGIIPQTREKPVTDSNKDEEDQEEERELEEEIIEDPIQELTIEEHLIERKKKLQEKKMHIAALASAILSDPENNIKKLKELRSMLMEQDPDVAVTVRKLVIVSLMELFKDITPSYKIRPLTEAEKSTKTRKETQKLREFEEGLVSQYKFYLENLEQMVKDWKQRKLKKSNVVSLKAYKGLAEVAVKSLCELLVALPHFNFHNNIIVLIVPLMNDMSKLISEMCCEAVKKLFKQDKLGQASLGVIKVISGFVKGRNYEVRPEMLKTFLCLRIKEVEVKKDTEDINKPKKFMTFKEKRKSLSRMQRKWKKAEEKLERELREAEASESTEKKLKLHTETLNIVFVTYFRILKKAQRSPLLPAVLEGLAKFAHLINVEFFDDLLVVLHTLIESGDLSYQESLHCVQTAFHILSGQGDVLNIDPLKFYTHLYKTLFKLHAGATNEGVEIVLQCLDVMLTKRRKQVSQQRALAFIKRLCTLALHVLPNSSIGILATTRILMHTFPKTDLLLDSESQGSGVFLPELDEPEYCNAQNTALWELHALRRHYHPIVQRFAAHLIAGAPSEGSGALKPELSRRSATELFEAYSMAEMTFNPPVESSNPKIKGKFLQGDSFLNEDLNQLIKRYSSEVATESPLDFTKYLKTSLH [NOC3L]	-1.96	49.2	50	1.29	0.294	0.855
MKDSENKGASSPDMEPSYGGGLFDMVKGGAGRLFSNLKDNLKDTLKDTSSRVIQSVTSYTKGDLDFTYVTSRIIVMSFPLDNVDIGFRNQVDDIRSFLDSRHLDHYTVYNLSPKSYRTAKFHSRVSECSWPIRQAPSLHNLFAVCRNMYNWLLQNPKNVCVVHCLDGRAASSILVGAMFIFCNLYSTPGPAIRLLYAKRPGIGLSPSHRRYLGYMCDLLADKPYRPHFKPLTIKSITVSPIPFFNKQRNGCRPYCDVLIGETKIYSTCTDFERMKEYRVQDGKIFIPLNITVQGDVVVSMYHLRSTIGSRLQAKVTNTQIFQLQFHTGFIPLDTTVLKFTKPELDACDVPEKYPQLFQVTLDVELQPHDKVIDLTPPWEHYCTKDVNPSILFSSHQEHQDTLALGGQAPIDIPPDNPRHYGQSGFFASLCWQDQKSEKSFCEEDHAALVNQESEQSDDELLTLSSPHGNANGDKPHGVKKPSKKQQEPAAPPPPEDVDLLGLEGSAMSNSFSPPAAPPTNSELLSDLFGGGGAAGPTQAGQSGVEDVFHPSGPASTQSTPRRSATSTSASPTLRVGEGATFDPFGAPSKPSGQDLLGSFLNTSSASSDPFLQPTRSPSPTVHASSTPAVNIQPDVSGGWDWHAKPGGFGMGSKSAATSPTGSSHGTPTHQSKPQTLDPFADLGTLGSSSFASKPTTPTGLGGGFPPLSSPQKASPQPMGGGWQQGGAYNWQQPQPKPQPSMPHSSPQNRPNYNVSFSAMPGGQNERGKGSSNLEGKQKAADFEDLLSGQGFNAHKDKKGPRTIAEMRKEEMAKEMDPEKLKILEWIEGKERNIRALLSTMHTVLWAGETKWKPVGMADLVTPEQVKKVYRKAVLVVHPDKATGQPYEQYAKMIFMELNDAWSEFENQGQKPLY [DNAJC6]	0.0466	51.6	51.7	-0.112	-0.0779	-0.888
MKFRAKIVDGACLNHFTRISNMIAKLAKTCTLRISPDKLNFILCDKLANGGVSMWCELEQENFFNEFQMEGVSAENNEIYLELTSENLSRALKTAQNARALKIKLTNKHFPCLTVSVELLSMSSSSRIVTHDIPIKVIPRKLWKDLQEPVVPDPDVSIYLPVLKTMKSVVEKMKNISNHLVIEANLDGELNLKIETELVCVTTHFKDLGNPPLASESTHEDRNVEHMAEVHIDIRKLLQFLAGQQVNPTKALCNIVNNKMVHFDLLHEDVSLQYFIPALS [HUS1]	0.0659	51.8	51.9	-0.083	1.48	1.19
MKGKEEKEGGARLGAGGGSPEKSPSAQELKEQGNRLFVGRKYPEAAACYGRAITRNPLVAVYYTNRALCYLKMQQHEQALADCRRALELDGQSVKAHFFLGQCQLEMESYDEAIANLQRAYSLAKEQRLNFGDDIPSALRIAKKKRWNSIEERRIHQESELHSYLSRLIAAERERELEECQRNHEGDEDDSHVRAQQACIEAKHDKYMADMDELFSQVDEKRKKRDIPDYLCGKISFELMREPCITPSGITYDRKDIEEHLQRVGHFDPVTRSPLTQEQLIPNLAMKEVIDAFISENGWVEDY [STUB1]	0.397	46.7	49.5	0.0745	1.3	2.29
MKIKDAKKPSFPWFGMDIGGTLVKLSYFEPIDITAEEEQEEVESLKSIRKYLTSNVAYGSTGIRDVHLELKDLTLFGRRGNLHFIRFPTQDLPTFIQMGRDKNFSTLQTVLCATGGGAYKFEKDFRTIGNLHLHKLDELDCLVKGLLYIDSVSFNGQAECYYFANASEPERCQKMPFNLDDPYPLLVVNIGSGVSILAVHSKDNYKRVTGTSLGGGTFLGLCSLLTGCESFEEALEMASKGDSTQADKLVRDIYGGDYERFGLPGWAVASSFGNMIYKEKRESVSKEDLARATLVTITNNIGSVARMCAVNEKINRVVFVGNFLRVNTLSMKLLAYALDYWSKGQLKALFLEHEGYFGAVGALLGLPNFS [PANK3]	-0.124	53.4	53.9	-0.137	-1.56	-0.972
MKKFFDSRREQGGSGLGSGSSGGGGSTSGLGSGYIGRVFGIGRQQVTVDEVLAEGGFAIVFLVRTSNGMKCALKRMFVNNEHDLQVCKREIQIMRDLSGHKNIVGYIDSSINNVSSGDVWEVLILMDFCRGGQVVNLMNQRLQTGFTENEVLQIFCDTCEAVARLHQCKTPIIHRDLKVENILLHDRGHYVLCDFGSATNKFQNPQTEGVNAVEDEIKKYTTLSYRAPEMVNLYSGKIITTKADIWALGCLLYKLCYFTLPFGESQVAICDGNFTIPDNSRYSQDMHCLIRYMLEPDPDKRPDIYQVSYFSFKLLKKECPIPNVQNSPIPAKLPEPVKASEAAAKKTQPKARLTDPIPTTETSIAPRQRPKAGQTQPNPGILPIQPALTPRKRATVQPPPQAAGSSNQPGLLASVPQPKPQAPPSQPLPQTQAKQPQAPPTPQQTPSTQAQGLPAQAQATPQHQQQLFLKQQQQQQQPPPAQQQPAGTFYQQQQAQTQQFQAVHPATQKPAIAQFPVVSQGGSQQQLMQNFYQQQQQQQQQQQQQQLATALHQQQLMTQQAALQQKPTMAAGQQPQPQPAAAPQPAPAQEPAIQAPVRQQPKVQTTPPPAVQGQKVGSLTPPSSPKTQRAGHRRILSDVTHSAVFGVPASKSTQLLQAAAAEASLNKSKSATTTPSGSPRTSQQNVYNPSEGSTWNPFDDDNFSKLTAEELLNKDFAKLGEGKHPEKLGGSAESLIPGFQSTQGDAFATTSFSAGTAEKRKGGQTVDSGLPLLSVSDPFIPLQVPDAPEKLIEGLKSPDTSLLLPDLLPMTDPFGSTSDAVIEKADVAVESLIPGLEPPVPQRLPSQTESVTSNRTDSLTGEDSLLDCSLLSNPTTDLLEEFAPTAISAPVHKAAEDSNLISGFDVPEGSDKVAEDEFDPIPVLITKNPQGGHSRNSSGSSESSLPNLARSLLLVDQLIDL [AAK1]	0.192	50.9	51.8	-0.0894	0.691	0.746
MKKKTVCTLNMGDKKYEDMEGEENGDNTISTGLLYSEADRCPICLNCLLEKEVGFPESCNHVFCMTCILKWAETLASCPIDRKPFQAVFKFSALEGYVKVQVKKQLRETKDKKNENSFEKQVSCHENSKSCIRRKAIVREDLLSAKVCDLKWIHRNSLYSETGGKKNAAIKINKPQRSNWSTNQCFRNFFSNMFSSVSHSGESSFTYRAYCTEFIEASEISALIRQKRHELELSWFPDTLPGIGRIGFIPWNVETEVLPLISSVLPRTIFPTSTISFEHFGTSCKGYALAHTQEGEEKKQTSGTSNTRGSRRKPAMTTPTRRSTRNTRAETASQSQRSPISDNSGCDAPGNSNPSLSVPSSAESEKQTRQAPKRKSVRRGRKPPLLKKKLRSSVAAPEKSSSNDSVDEETAESDTSPVLEKEHQPDVDSSNICTVQTHVENQSANCLKSCNEQIEESEKHTANYDTEERVGSSSSESCAQDLPVLVGEEGEVKKLENTGIEANVLCLESEISENILEKGGDPLEKQDQISGLSQSEVKTDVCTVHLPNDFPTCLTSESKVYQPVSCPLSDLSENVESVVNEEKITESSLVEITEHKDFTLKTEELIESPKLESSEGEIIQTVDRQSVKSPEVQLLGHVETEDVEIIATCDTFGNEDFNNIQDSENNLLKNNLLNTKLEKSLEEKNESLTEHPRSTELPKTHIEQIQKHFSEDNNEMIPMECDSFCSDQNESEVEPSVNADLKQMNENSVTHCSENNMPSSDLADEKVETVSQPSESPKDTIDKTKKPRTRRSRFHSPSTTWSPNKDTPQEKKRPQSPSPRRETGKESRKSQSPSPKNESARGRKKSRSQSPKKDIARERRQSQSRSPKRDTTRESRRSESLSPRRETSRENKRSQPRVKDSSPGEKSRSQSRERESDRDGQRRERERRTRKWSRSRSHSRSPSRCRTKSKSSSFGRIDRDSYSPRWKGRWANDGWRCPRGNDRYRKNDPEKQNENTRKEKNDIHLDADDPNSADKHRNDCPNWITEKINSGPDPRTRNPEKLKESHWEENRNENSGNSWNKNFGSGWVSNRGRGRGNRGRGTYRSSFAYKDQNENRWQNRKPLSGNSNSSGSESFKFVEQQSYKRKSEQEFSFDTPADRSGWTSASSWAVRKTLPADVQNYYSRRGRNSSGPQSGWMKQEEETSGQDSSLKDQTNQQVDGSQLPINMMQPQMNVMQQQMNAQHQPMNIFPYPVGVHAPLMNIQRNPFNIHPQLPLHLHTGVPLMQVATPTSVSQGLPPPPPPPPPSQQVNYIASQPDGKQLQGIPSSSHVSNNMSTPVLPAPTAAPGNTGMVQGPSSGNTSSSSHSKASNAAVKLAESKVSVAVEASADSSKTDKKLQIQEKAAQEVKLAIKPFYQNKDITKEEYKEIVRKAVDKVCHSKSGEVNSTKVANLVKAYVDKYKYSRKGSQKKTLEEPVSTEKNIG [SCAF11]	-0.87	52.9	53.5	0.664	-1.41	2.84
MKKVRLKELESRLQQVDGFEKPKLLLEQYPTRPHIAACMLYTIHNTYDDIENKVVADLGCGCGVLSIGTAMLGAGLCVGFDIDEDALEIFNRNAEEFELTNIDMVQCDVCLLSNRMSKSFDTVIMNPPFGTKNNKGTDMAFLKTALEMARTAVYSLHKSSTREHVQKKAAEWKIKIDIIAELRYDLPASYKFHKKKSVDIEVDLIRFSF [METTL5]	-0.0292	58.9	63.4	-0.277	-0.685	-0.982
MKLGRAVLGLLLLAPSVVQAVEPISLGLALAGVLTGYIYPRLYCLFAECCGQKRSLSREALQKDLDDNLFGQHLAKKIILNAVFGFINNPKPKKPLTLSLHGWTGTGKNFVSKIIAENIYEGGLNSDYVHLFVATLHFPHASNITLYKDQLQLWIRGNVSACARSIFIFDEMDKMHAGLIDAIKPFLDYYDLVDGVSYQKAMFIFLSNAGAERITDVALDFWRSGKQREDIKLKDIEHALSVSVFNNKNSGFWHSSLIDRNLIDYFVPFLPLEYKHLKMCIRVEMQSRGYEIDEDIVSRVAEEMTFFPKEERVFSDKGCKTVFTKLDYYYDD [TOR1A]	0.000474	53.7	53.5	-0.0946	3.37	4.06
